Source: US20160272683A1 (Novo Nordisk, published 2016)
Numbered stars: 1 amine (or outer) side, 2 acyl side, 3 side chain; on linkers, the order of the positions; unused ones are H or OH. * marks the point of attachment. C20 diacid = O=C(O)CCCCCCCCCCCCCCCCCCC(=O)*; C18 diacid = O=C(O)CCCCCCCCCCCCCCCCC(=O)*; γGlu = O=C(O)[C@H](CCC(=O)[*:2])N[*:1]

T1: human amylin 3(a) receptor (human calcitonin receptor co-expressed with RAMP-3) (human, UniProt P30988 25-474; O60896 24-148, limits assumed)
T1 sequence (looked up) 1: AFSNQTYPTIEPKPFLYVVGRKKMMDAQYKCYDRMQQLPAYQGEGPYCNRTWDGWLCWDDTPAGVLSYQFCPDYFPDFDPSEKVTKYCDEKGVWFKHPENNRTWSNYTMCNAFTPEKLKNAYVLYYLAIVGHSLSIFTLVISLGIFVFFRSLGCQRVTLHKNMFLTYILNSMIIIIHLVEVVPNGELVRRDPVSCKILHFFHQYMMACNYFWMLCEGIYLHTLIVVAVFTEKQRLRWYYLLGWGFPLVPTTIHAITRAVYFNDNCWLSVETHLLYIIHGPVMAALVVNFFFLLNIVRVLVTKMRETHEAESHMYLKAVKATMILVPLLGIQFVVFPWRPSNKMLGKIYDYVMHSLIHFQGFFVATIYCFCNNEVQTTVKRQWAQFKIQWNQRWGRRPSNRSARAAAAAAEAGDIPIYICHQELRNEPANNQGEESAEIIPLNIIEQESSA
T1 sequence (looked up) 2: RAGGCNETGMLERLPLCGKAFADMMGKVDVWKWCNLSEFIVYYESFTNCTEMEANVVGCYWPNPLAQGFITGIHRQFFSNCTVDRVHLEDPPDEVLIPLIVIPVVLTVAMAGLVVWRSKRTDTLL

T2: human calcitonin receptor (human, UniProt P30988 25-474)
T2 sequence (looked up): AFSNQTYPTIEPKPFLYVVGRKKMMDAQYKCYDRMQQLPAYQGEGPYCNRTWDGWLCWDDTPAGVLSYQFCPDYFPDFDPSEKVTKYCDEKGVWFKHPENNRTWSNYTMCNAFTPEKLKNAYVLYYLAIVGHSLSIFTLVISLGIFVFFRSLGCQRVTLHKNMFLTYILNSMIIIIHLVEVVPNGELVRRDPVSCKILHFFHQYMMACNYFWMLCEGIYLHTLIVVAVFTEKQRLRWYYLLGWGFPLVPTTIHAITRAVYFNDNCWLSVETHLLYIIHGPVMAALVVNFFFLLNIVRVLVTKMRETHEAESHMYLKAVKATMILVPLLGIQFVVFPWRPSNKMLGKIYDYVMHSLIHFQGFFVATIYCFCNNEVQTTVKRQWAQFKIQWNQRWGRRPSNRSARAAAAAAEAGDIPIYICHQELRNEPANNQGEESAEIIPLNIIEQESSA

B1: [N-terminal(C18 diacid), 20I]mimylin (peptide)
peptide: {C18 diacid}-EASELSTAALGRLSAELHEIATLPRTETGPESP-NH2
SMILES: CC[C@H](C)[C@H](NC(=O)[C@H](CCC(=O)O)NC(=O)[C@H](Cc1c[nH]cn1)NC(=O)[C@H](CC(C)C)NC(=O)[C@H](CCC(=O)O)NC(=O)[C@H](C)NC(=O)[C@H](CO)NC(=O)[C@H](CC(C)C)NC(=O)[C@H](CCCNC(=N)N)NC(=O)CNC(=O)[C@H](CC(C)C)NC(=O)[C@H](C)NC(=O)[C@H](C)NC(=O)[C@@H](NC(=O)[C@H](CO)NC(=O)[C@H](CC(C)C)NC(=O)[C@H](CCC(=O)O)NC(=O)[C@H](CO)NC(=O)[C@H](C)NC(=O)[C@H](CCC(=O)O)NC(=O)CCCCCCCCCCCCCCCCC(=O)O)[C@@H](C)O)C(=O)N[C@@H](C)C(=O)N[C@H](C(=O)N[C@@H](CC(C)C)C(=O)N1CCC[C@H]1C(=O)N[C@@H](CCCNC(=N)N)C(=O)N[C@H](C(=O)N[C@@H](CCC(=O)O)C(=O)N[C@H](C(=O)NCC(=O)N1CCC[C@H]1C(=O)N[C@@H](CCC(=O)O)C(=O)N[C@@H](CO)C(=O)N1CCC[C@H]1C(N)=O)[C@@H](C)O)[C@@H](C)O)[C@@H](C)O
B2: [N-terminal(C20 diacid-gGlu), des1, 2L, 4G, 9V, 15Q, 21Q, 23Y, 30S, 31Q, 32T, 33Y]mimylin (peptide)
peptide: {C20 diacid-γGlu}-LSGLSTAVLGRLSQELHELQTYPRTETGSQTY-NH2
SMILES: CC(C)C[C@H](NC(=O)CC[C@H](NC(=O)CCCCCCCCCCCCCCCCCCC(=O)O)C(=O)O)C(=O)N[C@@H](CO)C(=O)NCC(=O)N[C@@H](CC(C)C)C(=O)N[C@@H](CO)C(=O)N[C@H](C(=O)N[C@@H](C)C(=O)N[C@H](C(=O)N[C@@H](CC(C)C)C(=O)NCC(=O)N[C@@H](CCCNC(=N)N)C(=O)N[C@@H](CC(C)C)C(=O)N[C@@H](CO)C(=O)N[C@@H](CCC(N)=O)C(=O)N[C@@H](CCC(=O)O)C(=O)N[C@@H](CC(C)C)C(=O)N[C@@H](Cc1c[nH]cn1)C(=O)N[C@@H](CCC(=O)O)C(=O)N[C@@H](CC(C)C)C(=O)N[C@@H](CCC(N)=O)C(=O)N[C@H](C(=O)N[C@@H](Cc1ccc(O)cc1)C(=O)N1CCC[C@H]1C(=O)N[C@@H](CCCNC(=N)N)C(=O)N[C@H](C(=O)N[C@@H](CCC(=O)O)C(=O)N[C@H](C(=O)NCC(=O)N[C@@H](CO)C(=O)N[C@@H](CCC(N)=O)C(=O)N[C@H](C(=O)N[C@@H](Cc1ccc(O)cc1)C(N)=O)[C@@H](C)O)[C@@H](C)O)[C@@H](C)O)[C@@H](C)O)C(C)C)[C@@H](C)O
B3: [N-terminal(C20 diacid-gGlu), des1, 4G, 9T, 15Q, 21Q, 23Y, 25P, 30S, 31G, 32T, 33Y]mimylin (peptide)
peptide: {C20 diacid-γGlu}-ASGLSTATLGRLSQELHELQTYPPTETGSGTY-NH2
SMILES: CC(C)C[C@H](NC(=O)CNC(=O)[C@H](CO)NC(=O)[C@H](C)NC(=O)CC[C@H](NC(=O)CCCCCCCCCCCCCCCCCCC(=O)O)C(=O)O)C(=O)N[C@@H](CO)C(=O)N[C@H](C(=O)N[C@@H](C)C(=O)N[C@H](C(=O)N[C@@H](CC(C)C)C(=O)NCC(=O)N[C@@H](CCCNC(=N)N)C(=O)N[C@@H](CC(C)C)C(=O)N[C@@H](CO)C(=O)N[C@@H](CCC(N)=O)C(=O)N[C@@H](CCC(=O)O)C(=O)N[C@@H](CC(C)C)C(=O)N[C@@H](Cc1c[nH]cn1)C(=O)N[C@@H](CCC(=O)O)C(=O)N[C@@H](CC(C)C)C(=O)N[C@@H](CCC(N)=O)C(=O)N[C@H](C(=O)N[C@@H](Cc1ccc(O)cc1)C(=O)N1CCC[C@H]1C(=O)N1CCC[C@H]1C(=O)N[C@H](C(=O)N[C@@H](CCC(=O)O)C(=O)N[C@H](C(=O)NCC(=O)N[C@@H](CO)C(=O)NCC(=O)N[C@H](C(=O)N[C@@H](Cc1ccc(O)cc1)C(N)=O)[C@@H](C)O)[C@@H](C)O)[C@@H](C)O)[C@@H](C)O)[C@@H](C)O)[C@@H](C)O
B4: [N-terminal(C20 diacid-gGlu), 2L, 4G, 8L, 9V, 15Q, 21Q, 23Y, 27G, 30S, 31G, 32T, 33Y]mimylin (peptide)
peptide: {C20 diacid-γGlu}-ELSGLSTLVLGRLSQELHELQTYPRTGTGSGTY-NH2
SMILES: CC(C)C[C@H](NC(=O)CNC(=O)[C@H](CO)NC(=O)[C@H](CC(C)C)NC(=O)[C@H](CCC(=O)O)NC(=O)CC[C@H](NC(=O)CCCCCCCCCCCCCCCCCCC(=O)O)C(=O)O)C(=O)N[C@@H](CO)C(=O)N[C@H](C(=O)N[C@@H](CC(C)C)C(=O)N[C@H](C(=O)N[C@@H](CC(C)C)C(=O)NCC(=O)N[C@@H](CCCNC(=N)N)C(=O)N[C@@H](CC(C)C)C(=O)N[C@@H](CO)C(=O)N[C@@H](CCC(N)=O)C(=O)N[C@@H](CCC(=O)O)C(=O)N[C@@H](CC(C)C)C(=O)N[C@@H](Cc1c[nH]cn1)C(=O)N[C@@H](CCC(=O)O)C(=O)N[C@@H](CC(C)C)C(=O)N[C@@H](CCC(N)=O)C(=O)N[C@H](C(=O)N[C@@H](Cc1ccc(O)cc1)C(=O)N1CCC[C@H]1C(=O)N[C@@H](CCCNC(=N)N)C(=O)N[C@H](C(=O)NCC(=O)N[C@H](C(=O)NCC(=O)N[C@@H](CO)C(=O)NCC(=O)N[C@H](C(=O)N[C@@H](Cc1ccc(O)cc1)C(N)=O)[C@@H](C)O)[C@@H](C)O)[C@@H](C)O)[C@@H](C)O)C(C)C)[C@@H](C)O
B5: [N-terminal(C20 diacid-gGlu), des1, 4G, 9V, 15Q, 21Q, 23aQ, 23bT, 23cY, 30S, 31Q, 32T, 33Y]mimylin (peptide)
peptide: {C20 diacid-γGlu}-ASGLSTAVLGRLSQELHELQTLQTYPRTETGSQTY-NH2
SMILES: CC(C)C[C@H](NC(=O)CNC(=O)[C@H](CO)NC(=O)[C@H](C)NC(=O)CC[C@H](NC(=O)CCCCCCCCCCCCCCCCCCC(=O)O)C(=O)O)C(=O)N[C@@H](CO)C(=O)N[C@H](C(=O)N[C@@H](C)C(=O)N[C@H](C(=O)N[C@@H](CC(C)C)C(=O)NCC(=O)N[C@@H](CCCNC(=N)N)C(=O)N[C@@H](CC(C)C)C(=O)N[C@@H](CO)C(=O)N[C@@H](CCC(N)=O)C(=O)N[C@@H](CCC(=O)O)C(=O)N[C@@H](CC(C)C)C(=O)N[C@@H](Cc1c[nH]cn1)C(=O)N[C@@H](CCC(=O)O)C(=O)N[C@@H](CC(C)C)C(=O)N[C@@H](CCC(N)=O)C(=O)N[C@H](C(=O)N[C@@H](CC(C)C)C(=O)N[C@@H](CCC(N)=O)C(=O)N[C@H](C(=O)N[C@@H](Cc1ccc(O)cc1)C(=O)N1CCC[C@H]1C(=O)N[C@@H](CCCNC(=N)N)C(=O)N[C@H](C(=O)N[C@@H](CCC(=O)O)C(=O)N[C@H](C(=O)NCC(=O)N[C@@H](CO)C(=O)N[C@@H](CCC(N)=O)C(=O)N[C@H](C(=O)N[C@@H](Cc1ccc(O)cc1)C(N)=O)[C@@H](C)O)[C@@H](C)O)[C@@H](C)O)[C@@H](C)O)[C@@H](C)O)C(C)C)[C@@H](C)O
B6: [N-terminal(C20 diacid-gGlu), des1, 4G, 9V, 12K, 15Q, 21Q, 23Y, 25P, 30S, 31G, 32T, 33Y]mimylin (peptide)
peptide: {C20 diacid-γGlu}-ASGLSTAVLGKLSQELHELQTYPPTETGSGTY-NH2
SMILES: CC(C)C[C@H](NC(=O)CNC(=O)[C@H](CO)NC(=O)[C@H](C)NC(=O)CC[C@H](NC(=O)CCCCCCCCCCCCCCCCCCC(=O)O)C(=O)O)C(=O)N[C@@H](CO)C(=O)N[C@H](C(=O)N[C@@H](C)C(=O)N[C@H](C(=O)N[C@@H](CC(C)C)C(=O)NCC(=O)N[C@@H](CCCCN)C(=O)N[C@@H](CC(C)C)C(=O)N[C@@H](CO)C(=O)N[C@@H](CCC(N)=O)C(=O)N[C@@H](CCC(=O)O)C(=O)N[C@@H](CC(C)C)C(=O)N[C@@H](Cc1c[nH]cn1)C(=O)N[C@@H](CCC(=O)O)C(=O)N[C@@H](CC(C)C)C(=O)N[C@@H](CCC(N)=O)C(=O)N[C@H](C(=O)N[C@@H](Cc1ccc(O)cc1)C(=O)N1CCC[C@H]1C(=O)N1CCC[C@H]1C(=O)N[C@H](C(=O)N[C@@H](CCC(=O)O)C(=O)N[C@H](C(=O)NCC(=O)N[C@@H](CO)C(=O)NCC(=O)N[C@H](C(=O)N[C@@H](Cc1ccc(O)cc1)C(N)=O)[C@@H](C)O)[C@@H](C)O)[C@@H](C)O)[C@@H](C)O)C(C)C)[C@@H](C)O
B7: [N-terminal(C20 diacid-gGlu), des1, 4Q, 9V, 15Q, 16R, 19R, 21Q, 23Y, 27Q, 30S, 31Q, 32T, 33Y]mimylin (peptide)
peptide: {C20 diacid-γGlu}-ASQLSTAVLGRLSQRLHRLQTYPRTQTGSQTY-NH2
SMILES: CC(C)C[C@H](NC(=O)[C@H](CCCNC(=N)N)NC(=O)CNC(=O)[C@H](CC(C)C)NC(=O)[C@@H](NC(=O)[C@H](C)NC(=O)[C@@H](NC(=O)[C@H](CO)NC(=O)[C@H](CC(C)C)NC(=O)[C@H](CCC(N)=O)NC(=O)[C@H](CO)NC(=O)[C@H](C)NC(=O)CC[C@H](NC(=O)CCCCCCCCCCCCCCCCCCC(=O)O)C(=O)O)[C@@H](C)O)C(C)C)C(=O)N[C@@H](CO)C(=O)N[C@@H](CCC(N)=O)C(=O)N[C@@H](CCCNC(=N)N)C(=O)N[C@@H](CC(C)C)C(=O)N[C@@H](Cc1c[nH]cn1)C(=O)N[C@@H](CCCNC(=N)N)C(=O)N[C@@H](CC(C)C)C(=O)N[C@@H](CCC(N)=O)C(=O)N[C@H](C(=O)N[C@@H](Cc1ccc(O)cc1)C(=O)N1CCC[C@H]1C(=O)N[C@@H](CCCNC(=N)N)C(=O)N[C@H](C(=O)N[C@@H](CCC(N)=O)C(=O)N[C@H](C(=O)NCC(=O)N[C@@H](CO)C(=O)N[C@@H](CCC(N)=O)C(=O)N[C@H](C(=O)N[C@@H](Cc1ccc(O)cc1)C(N)=O)[C@@H](C)O)[C@@H](C)O)[C@@H](C)O)[C@@H](C)O

Experiments:
[1] = target: T1, human amylin 3(a) receptor (human …); test: cell-based or functional assay
[2] = target: T2, human calcitonin receptor; test: cell-based or functional assay

Row | Binder | hAmylin-R funct. EC50 (pM) [1] | hCTR funct. EC50 (pM) [2]
1 | B1 | 6 pM | 5 pM
2 | B2 | 31 pM | 31 pM
3 | B3 | 23 pM | 19 pM
4 | B4 | 25 pM | 25 pM
5 | B5 | 54 pM | 45 pM
6 | B6 | 18 pM | 15 pM
7 | B7 | 16 pM | 15 pM
